What follows are sequences tested on Escherichia coli TOP10 (assay: shrunken log2 fold change of peptide-encoding DNA abundance (4.5 h post-induction vs induction); higher = less antimicrobial activity (less host growth inhibition)). Details: time post-induction: 4.5 h; library: site-saturation at positions 5, 18, 19, 20.
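Note: peptides expressed intracellularly from a pBAD plasmid library in pooled LB shake-flask culture, induced with 0.3% L-arabinose, DNA abundance read by NGS, three biological replicates, DESeq2 with apeglm shrinkage.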

Point of comparison: RRIRGRPPRLPRPRPRPVGKPRP, “shrunken log2 fold change” value 0.646. Against it:
- RRIRCRPPRLPRPRPRPGDSPRP — lower, -0.0113
- RRIRMRPPRLPRPRPRPHRPPRP — lower, 0.066
- RRIRMRPPRLPRPRPRPCFIPRP — lower, -0.496
- RRIRCRPPRLPRPRPRPLWDPRP — lower, -0.386
- RRIRFRPPRLPRPRPRPTGPPRP — lower, 0.445
- RRIRRRPPRLPRPRPRPHTGPRP — lower, -0.105
- RRIRKRPPRLPRPRPRPNQGPRP — lower, 0.079
- RRIRFRPPRLPRPRPRPKTEPRP — lower, 0.0656
- RRIRGRPPRLPRPRPRPRVCPRP — higher, 1.1
- RRIRMRPPRLPRPRPRPYKMPRP — lower, -0.277
- RRIRVRPPRLPRPRPRPDQCPRP — lower, 0.0862
- RRIRGRPPRLPRPRPRPYMSPRP — lower, 0.0366
- RRIRNRPPRLPRPRPRPQIEPRP — lower, -0.251
- RRIRQRPPRLPRPRPRPCQEPRP — lower, -0.015
- RRIRHRPPRLPRPRPRPLGIPRP — lower, -0.148
- RRIRFRPPRLPRPRPRPWCYPRP — lower, -0.751
- RRIRWRPPRLPRPRPRPLECPRP — lower, 0.0173
- RRIRSRPPRLPRPRPRPGYVPRP — lower, -0.809
- RRIRHRPPRLPRPRPRPLFGPRP — lower, -0.0987
- RRIRDRPPRLPRPRPRPEIQPRP — within 0.2 log units, 0.7
- RRIRARPPRLPRPRPRPRCWPRP — within 0.2 log units, 0.601
- RRIRQRPPRLPRPRPRPFGAPRP — lower, -0.0476
- RRIRVRPPRLPRPRPRPIINPRP — lower, -0.644
- RRIRCRPPRLPRPRPRPGEFPRP — lower, -0.179
- RRIRVRPPRLPRPRPRPSSDPRP — lower, -0.131
- RRIRPRPPRLPRPRPRPENGPRP — lower, -0.0225
- RRIRRRPPRLPRPRPRPQMKPRP — lower, -0.0643
- RRIRTRPPRLPRPRPRPTIMPRP — lower, -0.597
- RRIRWRPPRLPRPRPRPTVGPRP — within 0.2 log units, 0.468
- RRIRPRPPRLPRPRPRPQRRPRP — lower, -0.359
- RRIRYRPPRLPRPRPRPDQDPRP — lower, -0.0701
- RRIRIRPPRLPRPRPRPQVGPRP — lower, -0.094
- RRIRWRPPRLPRPRPRPEPDPRP — higher, 0.901
- RRIRIRPPRLPRPRPRPLYYPRP — lower, -0.856
- RRIRLRPPRLPRPRPRPQMVPRP — lower, -0.108
- RRIRRRPPRLPRPRPRPYWDPRP — lower, -0.247
- RRIRKRPPRLPRPRPRPAPSPRP — within 0.2 log units, 0.748
- RRIRWRPPRLPRPRPRPQKMPRP — lower, -0.0924
- RRIRWRPPRLPRPRPRPYWEPRP — lower, -0.0146
- RRIRTRPPRLPRPRPRPSCHPRP — lower, -0.783
- RRIRIRPPRLPRPRPRPNMIPRP — lower, -0.225
- RRIRIRPPRLPRPRPRPHQRPRP — lower, -0.137
- RRIRYRPPRLPRPRPRPLQYPRP — lower, -0.624
- RRIRMRPPRLPRPRPRPYCNPRP — lower, -0.189
- RRIRLRPPRLPRPRPRPMTWPRP — lower, -0.384
- RRIRTRPPRLPRPRPRPLPWPRP — lower, 0.147
- RRIRSRPPRLPRPRPRPDKFPRP — lower, -0.143
- RRIRNRPPRLPRPRPRPCRPPRP — lower, -0.197
- RRIRGRPPRLPRPRPRPGHIPRP — lower, 0.299
- RRIRSRPPRLPRPRPRPCDCPRP — lower, -0.239
